The record followed here is patent US6635450.

The test system of data set [1] is Kip1 (28-79), 52-amino acid peptide with a C-terminal hexahistidine tag.
In data set [2] the test system is recombinant mouse Kip1 with a C-terminal hexahistidine sequence (expressed in BL21(DE3) bacteria from pET21a).
The target in data set [3] is human cyclin A-Cdk2 complex (baculovirally expressed) (human) (UniProt P20248). Kind of data set: cell-based or functional assay.
Data set [4] addresses His-cyclin E-Cdk2 complex (baculoviral human cyclin E with N-terminal hexahistidine, in complex with baculoviral Cdk2) (human) (UniProt P24864). As to the kind of experiment: cell-based or functional assay.

Sequence of recombinant mouse Kip1 with a C-terminal hexahistidine sequence (expressed in BL21(DE3) bacteria from pET21a) (chain, as listed by the source): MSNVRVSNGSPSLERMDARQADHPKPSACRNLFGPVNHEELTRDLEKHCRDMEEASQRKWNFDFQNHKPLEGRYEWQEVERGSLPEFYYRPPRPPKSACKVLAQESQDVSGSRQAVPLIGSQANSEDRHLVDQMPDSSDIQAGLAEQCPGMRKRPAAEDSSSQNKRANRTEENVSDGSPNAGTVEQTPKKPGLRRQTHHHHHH
Sequence of Kip1 (28-79), 52-amino acid peptide with a C-terminal hexahistidine tag (chain, as listed by the source): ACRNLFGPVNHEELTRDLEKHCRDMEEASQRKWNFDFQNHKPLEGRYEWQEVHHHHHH

Consider “His-cyclin E-Cdk2 complex (baculoviral human cyclin E with N-terminal hexahistidine, in complex with baculoviral Cdk2)”, for which the Rb phosphorylation entry in data set [1] was “inhibited cyclin E-Cdk2 or cyclin D2:Cdk4 less effectively”. In addition, the “Rb kinase activity (phosphorylation of a GST-Rb fusion product)” value in data set [2] is “Addition of Kip1 to cyclin E-Cdk2, cyclin A-Cdk2 or cyclin D2-Cdk4 complexes inhibited their ability to phosphorylate a GST-Rb fusion product”.

Consider “cyclin E-Cdk2 complexes assembled in A549 cell extracts (added histidine-tagged baculoviral cyclin E with the endogenous Cdk2)”, for which, in data set [2], the “cyclin E-associated histone H1 kinase activity and Thr160-phosphorylated form of Cdk2 on western blot” value is reported as “Addition of histidine-tagged Kip1 to the cell extracts markedly decreased the level of cyclin E-associated kinase activity”.

On to “human cyclin A-Cdk2 complex (baculovirally expressed)”, for which, in data set [1], the Rb phosphorylation result is “This peptide inhibited Rb phosphorylation by cyclin A-Cdk2 with a potency that was close to that of full length Kip1”. In data set [2], the “Rb kinase activity (phosphorylation of a GST-Rb fusion product)” value is given as “Addition of Kip1 to cyclin E-Cdk2, cyclin A-Cdk2 or cyclin D2-Cdk4 complexes inhibited their ability to phosphorylate a GST-Rb fusion product”.

In data set [3], “recombinant mouse Kip1 with a C-terminal hexahistidine sequence (expressed in BL21(DE3) bacteria from pET21a) (from UniProt P46414 1-197)” displayed a histone H1 kinase activity, concentration for complete inhibition of 8 fold. Moreover, the histone H1 kinase activity, half-maximal inhibition in data set [4] came to 0.5 nM.
